Experimental data from PMC10973503.

Biological target: α-synuclein (α-syn) 1-140 (UniProt P37840)
Assay: WT-PFF-seeded ThT fibrillation kinetics, NS-TEM
Conditions: reference: unmodified WT monomer plus WT PFF; sites S87

For “α-synuclein (α-syn) 1-140 (from UniProt P37840) pS87 monomer plus WT PFF”, the “binding against the reference” value was “weaker”.
